Source: patent US20230058519A1 (SHANGHAI CELL THERAPY GROUP, published 2023)

Tests used:
[1] = biological target: T1, BCMA-His antigen (UniProt Q02223 1-54); assay: SPR, BCMA-his coupled on CM5 chip, TCP as analyte, 1:1 fit
T1 construct: also called BMCA antigen
T1 sequence (looked up): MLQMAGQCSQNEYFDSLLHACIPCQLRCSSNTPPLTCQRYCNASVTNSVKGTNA
Experimental: First the binding affinity of the purified BCMA-TCPs against BMCA antigen was assessed by SPR. BCMA-his antigen was coupled onto a CM5 chip (GE Healthcare Life Sciences), and then a variety of anti-BCMA BsAbs were flowed at the flow rate of 10 uL/min with dissociation time of 900s. Binding kinetics were determined with a 1:1 fit model.

[2] = biological target: mesothelin (MSLN) expressed on cells (UniProt Q13421); assay: flow cytometry on 293T-MSLN+ cells; unit taken from the axis 'Conc.(nM)'
[3] = biological target: T2, BCMA expressed on cells (UniProt Q02223 1-184, limits assumed); assay: flow cytometry on CHOK1-BCMA+ cells; unit taken from the axis 'Conc.(nM)'
T2 construct: whole, on cells; also called CHOK1-BCMA cell line; BCMA over-expression cell line
T2 sequence (looked up): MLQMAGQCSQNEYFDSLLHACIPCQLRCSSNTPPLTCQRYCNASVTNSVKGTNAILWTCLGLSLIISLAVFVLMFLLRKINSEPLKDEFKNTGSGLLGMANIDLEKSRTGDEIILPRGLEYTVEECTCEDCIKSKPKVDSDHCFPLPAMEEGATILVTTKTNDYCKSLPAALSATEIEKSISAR
Experimental: The binding bioactivity for mesothelin and BCMA over-expressing cells was evaluated by flow cytometry. Stable cell lines were harvested using 0.25% Trypsin.
About 5E5 cells were collected per sample, and the cells were resuspended in 100 μL/well tested antibodies with His-tag. Then the cells were incubated with anti-His-tag antibody (Genscript, China) and Streptavidin-PE (Biolegend, China). The incubation step of each step was performed at 4° C. in the dark for 1 hr, and then the cells were washed 2× with 200 μL PBS buffer. The washed cells were resuspended in 200 μL PBS buffer and the sample was analyzed by FACS.

Chain of mesothelin (MSLN) expressed on cells (Q13421 other isoform, or with tags, fused parts or gaps limits assumed): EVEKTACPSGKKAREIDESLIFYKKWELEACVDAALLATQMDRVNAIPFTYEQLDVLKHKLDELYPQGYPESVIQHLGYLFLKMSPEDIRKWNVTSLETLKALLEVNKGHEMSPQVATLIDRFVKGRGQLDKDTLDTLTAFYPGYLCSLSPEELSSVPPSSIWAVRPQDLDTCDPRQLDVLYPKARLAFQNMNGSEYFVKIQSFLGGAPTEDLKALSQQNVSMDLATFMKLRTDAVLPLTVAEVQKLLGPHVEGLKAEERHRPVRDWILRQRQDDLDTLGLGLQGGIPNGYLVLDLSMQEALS

Binder	Kd [1]	koff [1]	kon [1]	EC50 [2]	EC50 [3]
TCP-MC (VHH, also called MC001C) VHH: QVQLVESGGGLVQPGGSLRLSCAASGSITSIYAIGWYRQAPGKLRELVAAITTSGNTFYRDSVKGRFTISRDNAKNTVSLQMNSLKSEDTAVYDCNGAPWGDHAPLVVSWDQGTQVTVSS	0.138 nM	0.000546 s⁻¹	3.96e+06 M⁻¹ s⁻¹		
TCP001-P (bispecific antibody, Positive control in TCP format) QLQLGASGGGLVQPGGSLRLSCALSGFTLRELDEFAIGWFRQAPGKEREGVSCISGTGGITHYADSVKGRFTISRDIAKTTVYLQMNSLNSEDTAVYYCAADERCTDRLIRPPTYWGQGTQVTVSSGGGGSGGGGSGGGGSDIVLTQSPASLAMSLGERATISCRASESVSVIGAHLIHWYQQKPGQPPKLLIYLASNLETGVPARFSGSGSGTDFTLTISRVQAEDAAIYSCLQSRIFPRTFGQGTKLEIKGSTSGSGKPGSGEGSTKGQVQLVQSGSELKKPGESVKISCKASGYTFTDYSINWVKQAPGQGLKWMGWINTETREPAYAYDFRGRFVFSLDTSASTAYLQISSLKAEDTAVYFCALDYSYAMDYWGQGTLVTVSSGGGGSEQKLISEEDLGGGGSHHHHHH	0.0151 nM	1.25e-05 s⁻¹	825000 M⁻¹ s⁻¹		
TCP003-C (bispecific antibody, also called TCP0031-C (as misprinted); BCMA-TCP) QLQLGASGGGLVQPGGSLRLSCALSGFTLRELDEFAIGWFRQAPGKEREGVSCISGTGGITHYADSVKGRFTISRDIAKTTVYLQMNSLNSEDTAVYYCAADERCTDRLIRPPTYWGQGTQVTVSSGGGGSAAAGQPREPQVYTLPPSQEEMTKNQVSLTCLVKGFYPSDIAVEWESNGQPENNYKTTPPVLDSDGSFFLYSRLTVDKSRWQEGNVFSCSVMHEALHNHYTQKSLSLSLGKGGGGSGGGGSGGGGSQVQLVESGGGLVQPGGSLRLSCAASGSITSIYAIGWYRQAPGKLRELVAAITTSGNTFYRDSVKGRFTISRDNAKNTVSLQMNSLKSEDTAVYDCNGAPWGDHAPLVVSWDQGTQVTVSSGGGGSEQKLISEEDLGGGGSHHHHHH	7.04 nM	0.000298 s⁻¹	42300 M⁻¹ s⁻¹	4.32 nM	22.3 nM
TCP-MD (VHH) VHH: QLQLGASGGGLVQPGGSLRLSCALSGFTLRELDEFAIGWFRQAPGKEREGVSCISGTGGITHYADSVKGRFTISRDIAKTTVYLQMNSLNSEDTAVYYCAADERCTDRLIRPPTYWGQGTQVTVSS				10.5 nM	
